According to publication PMC5268738, “A sequential multi-target Mps1 phosphorylation cascade promotes spindle checkpoint signaling” (eLife, 2017):

B1: Phosphorylated scBub1449–530: Mps1-phosphorylated scBub1 fragment containing the CM (protein)
chain: SRSPTVTAFSKDAINEVFSMFNQHYSTPGALLDGDDTTTSKFNVFENFTQEFTAKNIEDLTEVKDPKQETVSQQTTSTNETN
modifications: phosphothreonine at 453, phosphothreonine at 455, phosphoserine at 458 (mass spectrometry; co-expressed with scMps1); left off: GST, N-terminal, state not stated
notes: Mps1-phosphorylated scBub1 fragment containing the CM
B2: scBub1_369–608: scBub1 fragment co-expressed with the kinase domain of scMps1 in bacteria (protein)
chain: RKLDVLVERRQDLPSSQPPVVPKSTRIEVFKDDDNPSQSTHHKNTQVQVQTTTSILPLKPVVDGNLAHETPVKPSLTSNASRSPTVTAFSKDAINEVFSMFNQHYSTPGALLDGDDTTTSKFNVFENFTQEFTAKNIEDLTEVKDPKQETVSQQTTSTNETNDRYERLSNSSTRPEKADYMTPIKETTETDVVPIIQTPKEQIRTEDKKSGDNTETQTQLTSTTIQSSPFLTQPEPQAEK
modifications: left off: GST, N-terminal, kept
notes: scBub1 fragment co-expressed with the kinase domain of scMps1 in bacteria

What was measured:
[1] = target: scMad1^E–scMad2 complex; assay: ITC, Mps1-phosphorylated scBub1 fragment with scMad1^E–scMad2 complex; format: binding, Saccharomyces cerevisiae; conditions: 20°C, 25 mM HEPES pH 7.5, 150 mM NaCl, scMad1 proteins 20 µM in cell, scBub1 fragment 300 µM injected, read-out: Kd, dissociation constant (affinity)
Protocol: (§1) All isothermal titration calorimetry (ITC) assays were performed with a MicroCal Omega ITC200 titration calorimeter (GE Life Sciences) at 20°C. Recombinant scMad1^CTD protein or scMad1–scMad2 complexes were dialyzed into the HEPES Buffer I (25 mM HEPES, pH 7.5, 150 mM NaCl). Recombinant human Mad1^CTD protein was dialyzed into the HEPES Buffer II (25 mM HEPES, pH 7.5, 50 mM NaCl). For each titration, 300 μl of scMad1 proteins (20 µM) or human Mad1 (50 µM) were added to the calorimeter cell. The scBub1 phospho-peptides or purified scMps1-phosphorylated scBub1_449–530 fragment (300 µM) in the HEPES Buffer I or the human Bub1 phospho-peptides (500 µM) in the HEPES Buffer II were injected with an injection syringe in 19 2-μl portions. The raw data were processed and fitted with the NITPIC software package ([Keller et al., 2012]).

[2] = target: T1, C-terminal domain (CTD) of scMad1 (Saccharomyces cerevisiae, UniProt P40957); assay: ITC, scBub1 fragment or phospho-peptides with scMad1 CTD; format: binding; conditions: 20°C, 25 mM HEPES pH 7.5, 150 mM NaCl, scMad1 20 µM in cell, scBub1 phospho-peptide or fragment 300 µM injected, read-out: Kd, dissociation constant
T1 sequence (P40957 633-749 limits assumed): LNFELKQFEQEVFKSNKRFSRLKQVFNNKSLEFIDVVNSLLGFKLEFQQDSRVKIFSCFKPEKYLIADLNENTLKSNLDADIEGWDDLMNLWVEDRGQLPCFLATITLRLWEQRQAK
Protocol: as §1

[3] = test system: scMad1^E–scMad2 complex; assay: in vitro pull-down of scMad1^E–scMad2 by GST-scBub1 fragments; format: binding, Saccharomyces cerevisiae; conditions: scBub1 fragments alone or co-expressed with scMps1 kinase domain
Protocol: Expression of GST-BubR1^N (residues 1–370), GST-Mad2, GST-scBub1 fragments, GST-Mad1, and GST-scMad1 fragments in BL21(DE3) was induced by 0.1 mM isopropyl β-D-1-thiogalactopyranoside (IPTG) at 16°C overnight, after the OD600 reached 0.8. Mad1 and scMad1 fragments (Mad1^E) containing the Mad2-interacting motif (MIM) were co-expressed with Mad2 and scMad2, respectively. Fragments of scBub1 were co-expressed with His6-scMps1 (the kinase domain; residues 440–720). […] After sonication, lysates were cleared by centrifugation at 4°C. Supernatants were filtered by 0.45 µm filter and incubated with pre-equilibrated Glutathione Sepharose 4B beads (GE Healthcare). Protein-bound beads were washed with 40 volumes of the wash buffer I. The proteins were then eluted with reduced glutathione (Sigma) or cleaved with the PreScission protease. Eluates were dialyzed to the QA buffer (25 mM Tris-HCl, pH 8.0, 20 mM NaCl, 3 mM DTT), loaded onto a Resource Q column (GE Healthcare), and then eluted with the QB buffer (25 mM Tris-HCl, pH 8.0, 1 M NaCl, 3 mM DTT). Peak fractions were pooled and further purified with a Superdex 200 size exclusion column (GE Healthcare). […]
Recombinant bait proteins or bacteria lysates containing bait proteins were incubated with the appropriate affinity beads. […] The bead-bound proteins were analyzed by Coomassie blue staining or Western blotting. […]

Row | Molecule | Kd [1] | Kd [2] | binding to scMad1^E–scMad2 (in words) [3]
1 | B1 | 2210 nM | 2930 nM | –
2 | B2 | – | – | only the phosphorylated scBub1 bound to the scMad1^E–scMad2 complex
